Molecular target: the molecule itself
Assay: SPR

B1: Maf-His6, purified recombinant Maf (natural protein, B. subtilis, UniProt Q02169 1-189, looked up)
chain: MTKPLILASQSPRRKELLDLLQLPYSIIVSEVEEKLNRNFSPEENVQWLAKQKAKAVADLHPHAIVIGADTMVCLDGECLGKPQDQEEAASMLRRLSGRSHSVITAVSIQAENHSETFYDKTEVAFWSLSEEEIWTYIETKEPMDKAGAYGIQGRGALFVKKIDGDYYSVMGLPISKTMRALRHFDIRA
  binding result: binds
